The text below walks through data of patent publication US11578136B2, “Compositions and methods for treating cancer” (INNATE PHARMA, priority 2017, dated 2023).

For data set [1], the target named is T1, CD39 expressed by Ramos human lymphoma cells (Homo sapiens, UniProt P49961).
T1 construct: host or cells: Ramos human lymphoma cells
T1 sequence (P49961 1-510): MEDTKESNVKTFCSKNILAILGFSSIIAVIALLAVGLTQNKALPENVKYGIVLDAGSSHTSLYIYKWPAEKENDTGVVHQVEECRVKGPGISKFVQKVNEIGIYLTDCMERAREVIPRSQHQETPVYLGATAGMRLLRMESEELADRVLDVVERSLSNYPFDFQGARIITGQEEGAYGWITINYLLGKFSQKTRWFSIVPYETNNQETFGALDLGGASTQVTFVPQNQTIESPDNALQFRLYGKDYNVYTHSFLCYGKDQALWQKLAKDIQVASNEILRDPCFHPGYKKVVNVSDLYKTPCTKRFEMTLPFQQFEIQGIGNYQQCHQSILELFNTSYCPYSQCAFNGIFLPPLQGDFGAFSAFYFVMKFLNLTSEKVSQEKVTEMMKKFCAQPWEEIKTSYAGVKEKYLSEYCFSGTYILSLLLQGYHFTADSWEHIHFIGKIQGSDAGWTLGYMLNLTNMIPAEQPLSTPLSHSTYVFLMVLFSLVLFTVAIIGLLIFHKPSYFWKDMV
As to the kind of experiment: Inhibition of the enzymatic activity of cellular CD39 in Ramos cells (Cell Titer Glo). It is filed as cell-based. How it is done:
(§1) The inhibition of the CD39 enzymatic activity in CD39-expressing cells by antibodies was evaluated using Cell Titer Glo™ (Promega, reference G7571) that allows assessment of ATP hydrolysis through use of a reagent that generates a luminescent signal proportional to the amount of ATP present. The assay was thus designed to permit assessment of the inhibition of ATP hydrolyzed by CD39 in the cell culture supernatant. Briefly, 5×10^4 Ramos human lymphoma cells, 5×10^3 human CD39-, cynomolgus CD39- and mouse CD39-expressing CHO cells, were incubated 1 hour at 37° C. with anti-CD39 antibodies from 30 μg/ml to […]. Cells were then incubated with 20 μM ATP for 1 additional hour at 37° C. Plates were centrifuged for 2 min at 400 g and 50 μl cell supernatant are transferred in a luminescence microplate (white wells). 50 μl CellTiter-Glo® Reagent (CTG) was added to the supernatant and emitted light was quantified after a 5 min incubation in the dark using a Enspire™ luminometer. Anti-CD39 antibody efficacy was determined by comparing emitted light in presence of antibody with ATP alone (maximal light emission) and ATP together with cells (minimal light emission).
(§2) The inhibition by antibody I-394 of the ATPase activity of CD39 in CD39-expressing cells was evaluated using the assay used for inhibition of the enzymatic activity of cellular CD39 as described above (Methods).
In general terms: In ATP-based viability assays light output follows the ATP content of the culture.

Data set [2] has as its system cynomolgus CD39-expressing CHO cells (CHO-cyCD39). As to the kind of experiment: Inhibition of the enzymatic activity of cellular CD39 in CHO-cyCD39. It is filed as cell-based, cynomolgus (Macaca fascicularis). The conditions noted are these: result in words. The procedure:
as §1, §2

In data set [3] the target is T2, CHO cells expressing human CD39 (Homo sapiens, UniProt P49961).
T2 construct: expressed in transfected cells; host or cells: CHO cells
T2 sequence (P49961 1-510): T1 sequence (P49961 1-510)
As to the kind of experiment: Antibody titration on CHO-huCD39 by flow cytometry. It is filed as binding. The note with it: result in words. How it is done: Antibody I-394 was tested in two repeated experiments for binding to CHO cells expressing human CD39, CHO cells expressing cynomolgus (Macaca fascicularis) CD39, CHO cells expressing murine CD39, and human Ramos lymphoma cells (ATCC™, reference CRL-1596). Cells were incubated with various concentration of unlabeled anti-CD39 antibody from 30 μg/ml to 5×10^−4 μg/ml, for 30 minutes at 4° C. After washes, cells were incubated with Goat anti-mouse H+L labeled secondary antibody for 30 min at 4° C.
Background: Flow cytometry measures light scatter and fluorescence of single cells or particles in a stream.

For data set [4], the target named is T3, Human CD39-L3 (NTPDase3, ENTPD3) (Homo sapiens, UniProt O75355).
T3 sequence (O75355 1-529): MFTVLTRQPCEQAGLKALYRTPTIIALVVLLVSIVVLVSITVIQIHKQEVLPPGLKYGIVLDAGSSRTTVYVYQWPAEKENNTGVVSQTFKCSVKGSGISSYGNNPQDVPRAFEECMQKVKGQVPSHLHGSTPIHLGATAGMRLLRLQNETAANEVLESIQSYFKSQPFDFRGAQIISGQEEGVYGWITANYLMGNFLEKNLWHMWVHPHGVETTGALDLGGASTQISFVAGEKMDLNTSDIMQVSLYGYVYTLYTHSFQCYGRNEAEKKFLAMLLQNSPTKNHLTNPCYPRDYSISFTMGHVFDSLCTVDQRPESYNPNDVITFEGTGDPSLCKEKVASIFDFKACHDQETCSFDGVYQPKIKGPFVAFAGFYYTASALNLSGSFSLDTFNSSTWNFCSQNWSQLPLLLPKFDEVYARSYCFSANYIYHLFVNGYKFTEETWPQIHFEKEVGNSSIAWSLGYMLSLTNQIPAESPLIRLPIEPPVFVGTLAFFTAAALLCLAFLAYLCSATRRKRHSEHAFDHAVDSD
As to the kind of experiment: ELISA titration on CD39-L3. It is filed as binding. The conditions noted are these: result in words. The procedure:
(§3) Antibody I-394 was tested for binding to recombinant human CD39 isoforms (Rec-huCD39 isoforms) having amino acid sequences shown below were coated in 96-well plate in PBS 1× at 500 ng/ml or 1 μg/ml at 4° C. overnight. Wells were washed in TBS Tween 20, and further saturated 2H at RT in TBS Blocking buffer. Dose range concentration of primary antibody was incubated in TBS blocking buffer for 2 h at RT. Wells were washed in TBS Tween 20. […] Optical density was measured on Enspire™ at OD=450.
On the technique in general: An ELISA detects its analyte on a solid surface through an enzyme-linked reagent.

For another data set, the target named is T4, cell-membrane bound CD39 (Homo sapiens, UniProt P49961).
T4 sequence (P49961 1-510): T1 sequence (P49961 1-510)
As to the kind of experiment: Inhibition of the enzymatic activity of cellular CD39 (cells not specified). Type of data set: cell-based. How it is done: as §1
The two antibodies that have been reported to inhibit the ATPase activity of CD39 in cellular assays (BY40 and BY12) were assessed to determine whether are able to inhibit the ATPase activity of recombinant soluble CD39 protein. […]

In data set [5] the target is T5, human CD39 (vascular isoform) (Homo sapiens, UniProt P49961).
T5 sequence (P49961 1-510): T1 sequence (P49961 1-510)
As to the kind of experiment: ELISA titration on recombinant human CD39. Type of data set: binding. The note with it: result in words. The procedure: as §3

For “I-394: anti-CD39 antibody, VH SEQ ID NO: 6, VL SEQ ID NO: 7; human IgG1 Fc with L234A/L235E/G237A/A330S/P331S”, the “potency at blocking CD39 in Ramos cells compared to all other antibodies tested” value in data set [1] is “greater potency”. In addition, the “maximum inhibition achieved, cellular CD39” value in data set [1] (Ramos cells) is recorded as 81.6%. Also, the “blocking CD39 enzymatic activity in tumor (Ramos) cells” value in data set [1] (result in words) is recorded as “highly potent”. Besides, in data set [2], the “blocking CD39 enzymatic activity in CHO-cyCD39” value is “blocks”. Moreover, the “binding to cells expressing human CD39 (CHO-huCD39)” value in data set [3] is on record as “bound”. Further, in data set [4], the “binding to CD39-L3 in ELISA” value was “not”. Also, the “potency and maximal inhibition of cellular CD39 compared to BY40 (FIG. 2A)” value with cell-membrane bound CD39 (compared to BY40) was “greater potency and maximal inhibition”. The “inhibition of ATPase activity of CD39 protein in cells / cell-membrane bound CD39” value with cell-membrane bound CD39 (result in words) was “inhibit”. Besides, the “binding to CD39 in ELISA” value in data set [5] was “bound”.
